In patent publication US20230192845A1 (BLINK BIOMEDICAL, published 2023):

T1: rhesus CD96 transiently expressed on CHO cells (rhesus, UniProt P40200 22-585 (human entry))
T1 construct: also called rhesus CD96, short isoform
T1 chain: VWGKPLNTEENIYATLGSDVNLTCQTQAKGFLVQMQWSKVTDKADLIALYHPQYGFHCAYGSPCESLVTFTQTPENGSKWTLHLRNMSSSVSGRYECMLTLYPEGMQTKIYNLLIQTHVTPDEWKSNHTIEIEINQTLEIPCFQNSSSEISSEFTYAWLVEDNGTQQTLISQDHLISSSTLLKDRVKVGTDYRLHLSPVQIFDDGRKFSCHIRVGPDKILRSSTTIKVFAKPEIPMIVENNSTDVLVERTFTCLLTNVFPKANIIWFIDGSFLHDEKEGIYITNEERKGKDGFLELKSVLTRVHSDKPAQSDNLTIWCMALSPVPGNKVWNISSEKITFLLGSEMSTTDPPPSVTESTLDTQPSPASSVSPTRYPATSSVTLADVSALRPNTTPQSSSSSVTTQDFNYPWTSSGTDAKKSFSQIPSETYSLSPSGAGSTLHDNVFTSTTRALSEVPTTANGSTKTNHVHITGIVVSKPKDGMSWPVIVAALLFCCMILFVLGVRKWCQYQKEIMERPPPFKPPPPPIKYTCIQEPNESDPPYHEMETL

T2: mouse CD96 expressed on CHO cells (mouse, UniProt Q3U0X8 22-602)
T2 construct: whole, on cells; also called mCD96
T2 sequence (looked up): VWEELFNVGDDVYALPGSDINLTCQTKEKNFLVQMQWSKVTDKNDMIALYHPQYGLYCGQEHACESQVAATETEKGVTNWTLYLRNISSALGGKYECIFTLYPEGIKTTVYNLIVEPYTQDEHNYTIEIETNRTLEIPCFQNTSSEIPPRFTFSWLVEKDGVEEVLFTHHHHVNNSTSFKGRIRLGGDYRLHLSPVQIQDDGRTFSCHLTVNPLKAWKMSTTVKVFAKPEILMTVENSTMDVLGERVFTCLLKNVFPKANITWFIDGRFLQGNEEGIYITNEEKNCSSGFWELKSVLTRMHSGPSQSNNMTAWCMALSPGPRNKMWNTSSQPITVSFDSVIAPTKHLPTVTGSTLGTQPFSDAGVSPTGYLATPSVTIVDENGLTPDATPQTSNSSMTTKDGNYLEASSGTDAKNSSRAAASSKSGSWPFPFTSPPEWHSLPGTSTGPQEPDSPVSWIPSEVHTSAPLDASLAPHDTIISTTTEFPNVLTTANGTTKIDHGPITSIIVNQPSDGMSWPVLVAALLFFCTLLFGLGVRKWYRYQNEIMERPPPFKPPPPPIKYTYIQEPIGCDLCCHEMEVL

T3: human CD96 long isoform v1 transiently expressed on CHO cells (human, UniProt P40200 22-585)
T3 construct: also called hCD96v1; CD96v1
T3 sequence: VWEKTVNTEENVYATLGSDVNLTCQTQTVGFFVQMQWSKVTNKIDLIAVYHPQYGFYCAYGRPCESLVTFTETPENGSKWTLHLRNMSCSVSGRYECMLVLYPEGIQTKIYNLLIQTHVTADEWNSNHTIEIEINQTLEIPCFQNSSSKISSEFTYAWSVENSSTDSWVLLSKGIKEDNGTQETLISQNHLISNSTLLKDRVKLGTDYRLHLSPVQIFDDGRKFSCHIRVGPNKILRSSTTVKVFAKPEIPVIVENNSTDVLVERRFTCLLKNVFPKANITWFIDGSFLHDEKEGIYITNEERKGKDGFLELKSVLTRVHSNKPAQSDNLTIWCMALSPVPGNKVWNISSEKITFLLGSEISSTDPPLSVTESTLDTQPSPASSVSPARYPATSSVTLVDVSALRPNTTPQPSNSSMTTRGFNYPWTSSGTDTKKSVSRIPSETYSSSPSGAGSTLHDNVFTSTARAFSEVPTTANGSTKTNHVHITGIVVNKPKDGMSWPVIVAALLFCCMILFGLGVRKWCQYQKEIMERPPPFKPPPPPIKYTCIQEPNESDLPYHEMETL

T4: human CD96 short isoform v2 expressed on CHO cells (human, UniProt P40200 22-585)
T4 construct: also called hCD96v2; CD96v2; not shown: C-terminal HA-tag
T4 sequence: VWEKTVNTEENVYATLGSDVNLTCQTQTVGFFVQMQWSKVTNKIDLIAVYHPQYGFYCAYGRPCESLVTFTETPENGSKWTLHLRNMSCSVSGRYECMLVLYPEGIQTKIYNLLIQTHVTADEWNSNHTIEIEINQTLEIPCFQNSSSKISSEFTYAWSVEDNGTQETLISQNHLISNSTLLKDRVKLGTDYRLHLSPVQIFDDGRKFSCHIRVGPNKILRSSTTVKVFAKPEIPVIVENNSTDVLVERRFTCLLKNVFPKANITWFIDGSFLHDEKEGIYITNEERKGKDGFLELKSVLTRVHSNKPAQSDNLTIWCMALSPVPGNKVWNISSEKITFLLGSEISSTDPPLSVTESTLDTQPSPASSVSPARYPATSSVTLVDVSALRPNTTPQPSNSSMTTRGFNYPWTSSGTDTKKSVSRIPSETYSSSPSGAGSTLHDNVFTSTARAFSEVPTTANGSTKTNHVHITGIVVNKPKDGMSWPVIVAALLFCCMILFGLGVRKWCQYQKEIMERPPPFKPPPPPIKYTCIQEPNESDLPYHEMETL

T5: hCD226-His tagged protein transiently expressed on CHO cells (human, UniProt Q15762 19-336)
T5 construct: whole, on cells; also called DNAM-1
T5 sequence (looked up): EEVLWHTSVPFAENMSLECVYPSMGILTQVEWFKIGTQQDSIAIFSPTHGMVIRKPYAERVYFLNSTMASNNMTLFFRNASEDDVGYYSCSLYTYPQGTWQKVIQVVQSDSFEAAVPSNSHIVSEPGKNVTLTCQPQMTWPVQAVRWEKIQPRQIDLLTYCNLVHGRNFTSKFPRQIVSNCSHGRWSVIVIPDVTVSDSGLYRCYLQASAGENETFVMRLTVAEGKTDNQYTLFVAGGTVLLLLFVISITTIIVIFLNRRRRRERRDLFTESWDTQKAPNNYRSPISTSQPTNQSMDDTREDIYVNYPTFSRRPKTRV


How the values were obtained:
[1] = target: T1, rhesus CD96 transiently expressed on …; assay: flow cytometry on CHO cells transiently expressing rhesus CD96; antibody at 1 (thin line) and 10 µg/ml (thick dashed line), filled grey = isotype control
In short: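 Non-fixed CHO cells transiently transfected with rhesus CD96 were incubated with mouse anti-CD96 antibodies or isotype controls at 1 or 10 µg/mL for 30 min at 4 °C. Binding was read as fluorescence intensity by flow cytometry.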

[2] = target: T2, mouse CD96 expressed on CHO cells; assay: FCM on CHO cells expressing mouse CD96
In short: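 Flow cytometry on non-fixed CHO transfectants; mouse CD96 surface expression verified with clone 6A6. Mouse anti-CD96 antibodies or isotype controls applied at 10 or 1 μg/mL, 30 min at +4 °C.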

[3] = target: T3, human CD96 long isoform v1 transiently …; assay: FCM on hCD96v1-CHO cells, 10 µg/ml
[4] = target: T4, human CD96 short isoform v2 expressed …; assay: flow cytometry, indirect staining of transiently transfected CHO-S cells; median % of stained cells, 3-4 experiments
Text: Expression plasmids containing either the complete sequence of hCD96v2 or different extracellular domains (D1 to D3) of hCD96v2 or combinations thereof (D1D2, D1D3 or D2D3) were transiently transfected in CHO-S cells. Each transient transfect was indirectly stained with the different anti-CD96 candidates and analyzed by flow cytometry. Represented is the median % of stained CHO-S transfect obtained from 3 to 4 independent experiments for each anti-CD96 tested.
Expression vectors coding for truncated extracellular domains of hCD96v2 (short isoform v2) were constructed to map, within the 3 described immunoglobulin domains of hCD96v2, the epitopes recognized by the anti-hCD96 candidates. All expression vectors constructed contained the signal peptide, the D4 domain, the transmembrane, the intracellular chain of […] plus a HA-Tag to monitor transfection efficiency of the various constructs. The expression vectors contained only D1, D2, D3 or combinations of those 3 domains (D1D2, D1D3, D2D3). The anti-hCD96 antibodies were tested by FCM for their capacity to recognize the truncated CD96 proteins transiently expressed on CHO-S cells.

[5] = target: T5, hCD226-His tagged protein transiently …; assay: FRET by flow cytometry on transfected CHO cells

Binder	binding result [1]	binding result [2]	binding result [3]	binding result [4]	binding result [5]
BL006-2-19G13-19K15 (antibody, V domains shown, Recombinant mIgG2a/kappa (also made as mIgG2a-D265A); also called candidate NO 9) VH: QVQLQQPGSELVRPGASVKLSCKASGYKFTSYWMHWVKQRPGQGLEWIGSIYPGSGSTNYDEKFKRKATLTVDTFSSTASMQLSSLTSEDSAVYYCTREMAYWGQGTLVTVSA VL: DIVITQDELSNPVTSGESVSISCRSSKSLLYKDGKTYLNWFLQRPGQSPQLLVYWMSTRASGVSDRFSGSGSGTDFTLEISRVKAEDVGVYYCQQVVEYPFTFGTGTKLGIK	binds	no binding (tested: 1 and 10 µg/mL)	binds	binds	–
hTIGIT-Myc tagged protein transiently expressed on CHO cells (receptor, human, UniProt Q495A1 22-244, looked up, whole, on cells) MMTGTIETTGNISAEKGGSIILQCHLSSTTAQVTQVNWEQQDQLLAICNADLGWHISPSFKDRVAPGPGLGLTLQSLTVNDTGEYFCIYHTYPDGTYTGRIFLEVLESSVAEHGARFQIPLLGAMAATLVVICTAVIVVVALTRKKKALRIHSVEGDLRRKSAGQEEWSPSAPSPPGSCVQAEAAPAGLCGEQRGEDCAELHDYFNVLSYRSLGNCSFFTETG	–	–	–	–	binds
